The results in this text go back to patent US20160376333A1 (University of Washington, published 2016).

B1: Epstein-Barr virus BHRF1 a.a. 1-161 with C-terminal avi-6his tag (other)
chain: AYSTREILLALCIRDSRVHGNGTLHPVLELAARETPLRLSPEDTVVLRYHVLLEEIIERNSETFTETWNRFITHTEHVDLDFNSVFLEIFHRGDPSLGRALAWMAWCMHACRTLCCNQSTPYYVVDLSVRGMLEASEGLDGWIHQQGGWSTLIEDNIPGSGLNDIFEAQKIEWHEGSHHHHHH
notes: also called EBV BHRF1; BHRF1-biotin
B4: human Mcl-1 a.a. 172-327 with C-terminal avi-6his tag (other)
chain: GSDELYRQSLEIISRYLREQATGAKDTKPMGRSGATSRKALETLRRVGDGVQRNHETAFQGMLRKLDIKNEDDVKSLSRVMIHVFSDGVTNWGRIVTLISFGAFVAKHLKTINQESCIEPLAESITDVLVRTKRDWLVKQRGWDGFVEFFHVEDLEGGGLNDIFEAQKIEWHEGSHHHHHH
B5: human Bcl-XL a.a. 1-205 with C-terminal avi-6his tag (other)
chain: SQSNRELVVDFLSYKLSQKGYSWSQFSDVEENRTEAPEGTESEMETPSAINGNPSWHLADSPAVNGATGHSSSLDAREVIPMAAVKQALREAGDEFELRYRRAFSDLTSQLHITPGTAYQSFEQVVNELFRDGVNWGRIVAFFSFGGALCVESVDKEMQVLVSRIAAWMATYLNDHLEPWIQENGGWDTFVELYGNNAAAESRKGLNDIFEAQKIEWHEGSHHHHHH
notes: also called BCL2L1

Test [1] deals with human Bim-BH3 (a.a. 141-166) displayed on yeast (human, UniProt O43521 141-166). Briefly: yeast surface display titration (apparent KD).
Test [2] addresses T1, Bim-BH3 motif fused to the C-terminus of maltose-binding protein (MBP) (human, UniProt O43521 141-166).
T1 construct: domain: Bim-BH3 motif; also called MBP-Bim-BH3
Briefly: BLI, biotinylated target on streptavidin sensor, MBP-Bim-BH3 in solution.

Test [3] addresses B4. Briefly: BLI at a single analyte concentration (50 nM, 600 s association, then buffer); biotinylated BCL2 protein on a streptavidin sensor.
Test [4] addresses B1. Nature of the test: yeast display library, FACS sort at 100 nM BHRF1, deep sequencing.
Test [5] concerns the target B1. Nature of the test: yeast display library, FACS sort at 400 nM BHRF1, deep sequencing.
In test [6] the target is B1. Briefly: yeast surface display; BHRF1 titrated on clonal yeast showing the design, fluorescence by flow cytometry (apparent KD). (In general: Flow cytometry measures light scatter and fluorescence of single cells or particles in a stream.)
Test [7] deals with B5. Briefly: initial BLI screening (column 'Binds target?').

Chain of human Bim-BH3 (a.a. 141-166) displayed on yeast (O43521 141-166 limits assumed): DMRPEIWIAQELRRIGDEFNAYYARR

Take B1: the values for the Kd in test [1] and in test [2] were 12 nM and 7 nM, respectively.

B2: human Bfl-1 a.a. 1-153 (C4S) with C-terminal avi-6his tag (other)
chain: TDSEFGYIYRLAQDYLQCVLQIPQPGSGPSKTSRVLQNVAFSVQKEVEKNLKSCLDNVNVVSVDTARTLFNQVMEKEFEDGIINWGRIVTIFAFEGILIKKLLRQQIAPDVDTYKEISYFVAEFIMNNTGEWIRQNGGWENGFVKKFEPKSGGLNDIFEAQKIEWHEGSHHHHHH
notes: also called A1/Bfl-1
As to B2, the Kd in test [1] was found to be 2.1 nM; in test [2], 0.61 nM.

B3: human Bcl-w a.a. 1-182 with C-terminal avi-6his tag (other)
chain: MATPASAPDTRALVADFVGYKLRQKGYVCGAGPGEGPAADPLHQAMRAAGDEFETRFRRTFSDLAAQLHVTPGSAQQRFTQVSDELFQGGPNWGRLVAFFVFGAALCAESVNKEMEPLVGQVQEWMVAYLETQLADWIHSSGGWAEFTALYGDGALEEARRLREGNWASVRTVLTGAVALGAGLNDIFEAQKIEWHEGSHHHHHH
notes: range 1-182; also called BCL2L2
As for B3, the Kd stood at 2.1 nM in test [1] and 20 nM in test [2].

For the molecule B4, the Kd in test [1] is 0.6 nM; in test [2], 0.17 nM.

As to B5, the Kd in test [2] stood at 1.56 nM.

B6: human Bcl-B a.a. 11-175 with C-terminal avi-6his tag (other)
chain: ADPLRERTELLLADYLGYCAREPGTPEPAPSTPEAAVLRSAAARLRQIHRSFFSAYLGYPGNRFELVALMADSVLSDSPGPTWGRVVTLVTFAGTLLERGPLVTARWKKWGFQPRLKEQEGDVARDCQRLVALLSSRLMGQHRAWLQAQGGWDGFCHFFRTPFPGLNDIFEAQKIEWHEGSHHHHHH
notes: also called BCL2L10
Turning to B6, the Kd in test [2] stood at 7 nM.

B7: M-CDP01 (designed binder)
chain: ADPKKVLDKAKDQAENRVRELKQELEELYKKARKLDLTQEERRKLEEEAIAALLRAIGDIYNAIQQALNEADKLKKAGLVNSQQLDELKRRLEELKKEASKKARDYGLEFFEKLDY
B7: the binding result in test [3] was “binds”.

B8: Index 37 (designed binder)
chain: GDFWLKAIEIAGGRMLERARESWYRALYFILMVKLFYPSDDLRRIFTLRWIAESLKLIGDAFNLFELARELLELYYKYGWITLEKALKALWILLKLEEIFSKASKDLGERLAEEIERG
For B8, the Log2 enrichment ratio in test [4] is -3.13 log2; in test [5] it was -2.14 log2.

B9: Index 36 (designed binder)
chain: GYTKEWIRDRAKEELDRFADEAKDKADKIRDDFEKRDDKNQIAAELTKKWIAAELEAIGDAFNRAEEAKERLKKLLKLGLTRKEEAEEAAEKLEKLEKEASEKLSKIAHEVSKHDDQG
With B9, the Log2 enrichment ratio in test [4] was -3.6 log2; in test [5], -3.65 log2.

B10: M-CDP05 (designed binder)
chain: ADPKKVLDKAKDQAENRVRELKQKLEELYKEARKLDLTQEERHRLETKALSALLAAIGDILDAIMQALQEAAKLKKAGLVNSQQLDELKRRLEELRKEASRKARDYGREFWLKLDY
B10: the binding result in test [3] is “binds”.

B11: Index 04 (designed binder)
chain: GLLAEEGREQAEERLREARKKAEKAGDKIKDLAKYGQDSDDEKKKFMLKWIAAQLMVIGDMFNHAMEALWELLRRLKNNKISWDAFLKAKEEIEREEKEAARDSREKGREAAKMIDQG
With B11, the Kd in test [6] came to 44 nM. The Log2 enrichment ratio in test [4] was 2.11 log2; in test [5], 1.96 log2.

B12: X-CDP08 (designed binder)
chain: ADPKKVLDKAKDRAENRVRKLKKELEKLYKEARKLDLTQEQRDRIINAAIAAMIAAFGDIFHAIMEAKEEARKLKKAGLVNSQQLDELKRRLDELDEEAAQRAEKLGKEFRLKFEY
Consider B12, for which the binding result in test [7] is recorded as “binds”.

B13: X-CDP06 (designed binder)
chain: ADPKKVLDKAKDRAENRVRELKKKLEKLYKEARKLDLTQEQRNKIINAAMAAMIAAFGDIFHAIQEAKEEAKKLKKAGLVNSQQLDELKRRLDELDEEAAQRAEKLGKEFNLKFEY
As for B13, the binding result in test [7] was “binds”.

B14: X-CDP05 (designed binder)
chain: ADPKKVLDKAKDQAENRVRELKQKLEELYKEARKLDLTQEMRRQLRDQYIAAMLAAIGDLLNAIMQAKREADKLKKAGLVNSQQLDELKRRLEELEEEAAQKAADYGQEFLLKLEY
As for B14, the binding result in test [7] is given as “binds”.

B15: X-CDP03 (designed binder)
chain: ADPKKVLDKAKDQAENRVRELKQKLEELYKEARKLDLTQEMRRELRNRAIAAILQAIGDLLNAIQQAKDEADKLKKAGLVNSQQLDELKRRLEELQNEAAEKAADYGEEFWLKLEY
Take B15: in test [7], the binding result is given as “binds”.

B16: Index 03 (designed binder)
chain: GLDHDKIVDEARKKMEKKIREAKDKAKEFVLKALDNNHDLKQFRELAHKWIALMLMAIGDAFNIMMEAKRKAEWLREQGQQDEDKAEEAKEKLDKAFKEAAERFEEIAKIYGKQAKNG
In the case of B16, the Kd in test [6] turned out to be 160 nM. In addition, the Log2 enrichment ratio came out at 2.52 log2 in test [4] and 3.17 log2 in test [5].

B17: Index 02 (designed binder)
chain: GKSLLGIALEALEEAKRDLEKAKKQMEEMLKKKWKFDTTRDLKARASAEWIAAALKAIGDRFNAKLLIELGLDELFNKGLITQDIKEDIKRRAEEIFEKIERLIKQAIKDKDRFEKLG
In the case of B17, the Kd in test [6] was found to be 110 nM. The values for the Log2 enrichment ratio in test [4] and in test [5] were 3.92 log2 and 3.43 log2, respectively.

B18: X-CDP01 (designed binder)
chain: ADPKKVLDKAKDQAENRVRELKQKLEELYKEARKLDLTQEMRRELQARYIAAMLAAAGDIMEAIQQAKNEADKLKKAGLVNSQQLDELKRRLEELAKEAARKAEDYGREFQLKLEY
As to B18, in test [7], the binding result is “binds”.

B19: X-CDP10 (designed binder)
chain: ADPKKVLDKAKDQAENRVRELKQKLEELYKEARKLDLTQEMRRELRERYIAAMLAAAGDLWYAITQAKREADKLKKAGLVNSQQLDELKRRLEELLEEAARKAEDYGEEFRLKLEY
In the case of B19, in test [7], the binding result is “binds”.

B20: X-CDP02 (designed binder)
chain: ADPKKVLDKAKDQAENRVRELKQKLEELYKEARKLDLTQEMRKELVARYIAAMLAAAGDIVQAIQDAKNEADKLKKAGLVNSQQLDELKRRLEELAKEAARKATDYGREFQLKLEY
On to B20, for which, in test [7], the binding result is “binds”.

B21: X-CDP11 (designed binder)
chain: ADPKKVLDKAKDQAENRVRELKQKLEELYKEARKLDLTQEMRRELRDRYIAAMLAAIGDLFNAIQWAKQEADKLKKAGLVNSQQLDELKRRLEELAEEAARKAEDYGEEFKLKLEY
For the molecule B21, the binding result in test [7] is reported as “binds”.

B22: Index 01 (designed binder)
chain: GKRLEETVEETERRLREALREVYLLILLLAEEAKKKDLKEQNRHEYVFKWIAFMLMAIGDIFNIAEESKRRLDLFAKWGLHDRNKIDEAKKKIDKLALEAIERAKKYGDWFLNELDKG
On to B22, for which the Kd in test [6] came out at 39 nM. For the same molecule, the figures for the Log2 enrichment ratio in test [4] and in test [5] were 4.02 log2 and 3.54 log2, respectively.

B23: X-CDP04 (designed binder)
chain: ADPKKVLDKAKDQAENRVRELKQKLEELYKEARKLDLTQEDRKRLLLQYIAAMLAAIGDLENAIRWAKREADKLKKAGLVNSQQLDELKRRLEELAKEAAEKAADYGEEFNLKLEY
B23: the binding result in test [7] is listed as “binds”.
